IntAct's records for PubMed 23969831

B1: Protrudin (Homo sapiens), Q5T4F4 (parent)
chain: MQTSEREGSGPELSPSVMPEAPLESPPFPTKSPAFDLFNLVLSYKRLEIYLEPLKDAGDGVRYLLRWQMPLCSLLTCLGLNVLFLTLNEGAWYSVGALMISVPALLGYLQEVCRARLPDSELMRRKYHSVRQEDLQRGRLSRPEAVAEVKSFLIQLEAFLSRLCCTCEAAYRVLHWENPVVSSQFYGALLGTVCMLYLLPLCWVLTLLNSTLFLGNVEFFRVVSEYRASLQQRMNPKQEEHAFESPPPPDVGGKDGLMDSTPALTPTEDLTPGSVEEAEEAEPDEEFKDAIEETHLVVLEDDEGAPCPAEDELALQDNGFLSKNEVLRSKVSRLTERLRKRYPTNNFGNCTGCSATFSVLKKRRSCSNCGNSFCSRCCSFKVPKSSMGATAPEAQRETVFVCASCNQTLSK
partner: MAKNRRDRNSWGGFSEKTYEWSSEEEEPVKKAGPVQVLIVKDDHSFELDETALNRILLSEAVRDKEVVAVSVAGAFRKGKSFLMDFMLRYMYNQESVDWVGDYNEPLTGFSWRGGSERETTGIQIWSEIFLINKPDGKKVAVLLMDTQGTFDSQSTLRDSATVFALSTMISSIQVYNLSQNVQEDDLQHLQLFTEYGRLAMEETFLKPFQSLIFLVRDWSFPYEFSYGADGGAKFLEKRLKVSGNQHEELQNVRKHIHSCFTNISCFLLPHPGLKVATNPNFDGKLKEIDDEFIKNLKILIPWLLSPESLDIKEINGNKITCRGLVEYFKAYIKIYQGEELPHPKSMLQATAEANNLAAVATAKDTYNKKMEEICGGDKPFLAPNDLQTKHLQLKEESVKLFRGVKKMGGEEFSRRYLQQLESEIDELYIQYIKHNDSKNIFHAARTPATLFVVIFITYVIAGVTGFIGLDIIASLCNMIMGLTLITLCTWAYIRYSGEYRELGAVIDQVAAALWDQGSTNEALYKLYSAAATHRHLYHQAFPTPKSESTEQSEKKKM
B2: Atlastin-1 (Homo sapiens), Q8WXF7 (parent)
chain: B1 partner
partner: B1 chain
B3: Protrudin (Homo sapiens), Q5T4F4 (parent)
chain: B1 chain

Variants of: B1
Details: with atla1_human ATL1, Q8WXF7

effect of a mutation on the interaction	Variant
with no effect	G191V

Variants of: B2
Details: with zfy27_human ZFYVE27, Q5T4F4

effect of a mutation on the interaction	Variant
with no effect	R495W
with no effect	G469A
with no effect	S519A
with no effect	K80A

Variants of: B3
Details: with reep5_human REEP5, Q00765
reep5_human REEP5, Q00765, sequence (Q00765 whole entry): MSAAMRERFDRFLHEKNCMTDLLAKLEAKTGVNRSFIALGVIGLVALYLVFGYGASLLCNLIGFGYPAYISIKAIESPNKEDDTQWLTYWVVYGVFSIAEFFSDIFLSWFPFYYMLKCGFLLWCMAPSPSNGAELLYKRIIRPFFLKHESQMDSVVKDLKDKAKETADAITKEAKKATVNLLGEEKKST

effect of a mutation on the interaction	Variant
decreasing interaction strength	P200A
with no effect	G191V
